A short description of the data set: yeast display, Sf9 membrane polyspecificity reagent, FACS + sequencing; frameworks hold sequencing errors. An outline of the steps:
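Synthetic nanobody libraries on Saccharomyces cerevisiae BJ5465 were galactose-induced for 36–48 hours, stained 1 hour at 4 °C with 10% biotinylated, detergent-solubilized Sf9 membrane reagent and enriched on streptavidin microbeads. FACS then separated cells into low and high (top ~1%) gates by anti-HA (expression) and streptavidin (reagent binding) fluorescence. Genes were colony-PCR amplified, MiSeq 2 × 250 sequenced and CDR-length filtered. A clone's polyreactivity label is that of its gate of origin.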
In the case of “QVQLVESGGGLVQAGGSLRLSCAASGRIFQYNAMGWYRQAPGKERELVAAIRRGGGSTYYADSVKGRFTISRDNAKNTVYLQMNSLKPEDTAVYYCAADASSQIWYYPRDDYWGQGTQVTVSS”, the “polyreactivity (PSR sort gate)” value is recorded as “low polyreactivity”. Next, “QVQLVESGGGLVQAGGSLRLSCAASGRIFQYYAMGWYRQAPGKERELVAAISGRGTSTYYADSVKGRFTISRDNAKNTVYLQMNRLKPEDTAVYYCNADINYKSYFIHTFTIIPYGYWGQGTLVTVSS”: “low polyreactivity”. For the sequence “QVQLVESGGGLVQAGGSLRLSCAASGRIFQYYAMGWYRQAPGKERELVAAITSGGRTTYADSVKGRFTISRDNAKNTVYLQMNSLKPEVTAVYYCNAKTWYSYNYWGQGTQVTVSS”, the “polyreactivity (PSR sort gate)” value was “high polyreactivity”. For the sequence “QVQLVESGGGLVQAGGSLRLSCAASGRIFQYYVMGWYRQAPGKERELVARITYIGGGTYYADSVKGRFTMSRDNAKNTVYLQMNSLKPEDTAVYYWYARYPWREWEDDYWGQGTQVTVSS”, the “polyreactivity (PSR sort gate)” value is “low polyreactivity”. The entry for “QVQLVESGGGLVQAGGSLRLSCAASGRIFRANAMGWYRQAPGKERELVAGITRRGGSTNYADSVKGRFTISRDNAKTTVYLQMNSLKPEDTAVYYCNRDVSLSTSIRMDYWGQGTQVTVSS” is “low polyreactivity”; for “QVQLVESGGGLVQAGGSLRLSCAASGRIFRDYAMGAYRPAPGKERELGATITRSGGRTYYADSVKGRFTISRDNAKNTVYLQMNSLKPEDTAVYYCAARWRIVSGRFDYWGQGTQVTVSS” it is “high polyreactivity”.

With “QVQLVESGGGLVQAGGSLRLSCAASGRIFRDYAMGWYRQAPGKERELVAAIRSVGNTNYADSVKGRFTISRDNAKNTVYLQMNSLKPEDTAVYYCNRQGSDFSRQAIGDFRFDYWGQGTQVTVSS”, the “polyreactivity (PSR sort gate)” value is on record as “low polyreactivity”. The entry for “QVQLVESGGGLVQAGGSLRLSCAASGRIFRDYAMGWYRQAPGKETELVATITWSGATTYYADSVKGRFTISRDNAKNTVYLQMNSLKPEDTAVYYCNTDTDVDVAFDSWGQGTQVTVSS” is “low polyreactivity”; for “QVQLVESGGGLVQAGGSLRLSCAASGRIFRDYVMGWYRQAPGKERELVAAISRGGSTYYADSVKGRFTISRDNAKNTVYLQMNSLKPEDTAVYYCAASWRSYSQLDYYWGQGTQVTVSS” it is “high polyreactivity”; for “QVQLVESGGGLVQAGGSLRLSCAASGRIFRFYAIGAYRQAPGKERELVAVISTGGSTNYADSVKGRFTISRDNAKNTVYLQMNSLKPEDTAVYYCAKRKQSWGPGYSYYSSQYSMDYWGQGTLVTVSS” it is “high polyreactivity”. The entry for “QVQLVESGGGLVQAGGSLRLSCAASGRIFRFYAMGWYRQAPGKERELVAAISWRGGRTYYADSVKGRFTISRDNAKNTVYLQMNSLKPEDTAVYYCNADKYETSGWKYDSWGQGTQVTVSS” is “low polyreactivity”. The entry for “QVQLVESGGGLVQAGGSLRLSCAASGRIFRFYAMGWYRQAPGKERELVAAITRNVGSTFYADSVKGRFTISRDNAKNTVYLQMNSLKPEDTAVYYCAAESDYYYRYTFDYWGQGTQVTVSS” is “low polyreactivity”; for “QVQLVESGGGLVQAGGSLRLSCAASGRIFRFYAMGWYRQAPGKETELVATINSGVGRTYYADSVKGRFTISRDNAKNTVYLQFNSLKPEDTAVYYCAAEKRSYPQSYYYWGQGTQVTVSS” it is “high polyreactivity”; for “QVQLVESGGGLVQAGGSLRLSCAASGRIFRGNAMGWYRQARGKERELVAGISVRGGRTYYADSVKGRFTISRDNAKNTVYLQMNSLKPEDTAVYYCAAVFWDDYGKYYYWGQGTQVTVSS” it is “high polyreactivity”.

With “QVQLVESGGGLVQAGGSLRLSCAASGRIFRGYAMGWYRQAPGKERELVAAIDTDTGITYYADSVKGRFTISRDNAKNTVYLQMNSLKPEDTAVYYCAAETYYAVSTGYYFDYWGQGTQVTVSS”, the “polyreactivity (PSR sort gate)” value is listed as “high polyreactivity”. Next, “QVQLVESGGGLVQAGGSLRLSCAASGRIFRGYAMGWYRQAPGKERELVAAISGSGGSTYYADSVKGRFTISRDNAKNTVYLQMNSLKPEDTAVYYCNAGWYFYGETTDDYWGQGTQVTVSS”: “low polyreactivity”; “QVQLVESGGGLVQAGGSLRLSCAASGRIFRGYAMGWYRQAPGKERELVAAITTNGGSTYADSVKGRFTISRDNAKNTVYLQMNSLKPEDTAVYYCAARRVGWARGSGNYDYWGQGTQVTVSS”: “low polyreactivity”.

Turning to “QVQLVESGGGLVQAGGSLRLSCAASGRIFRGYAMGWYRQAPGKERELVATINASGGTTYYADSVKGRFTISRDNAKNTVYLQMNSLKPEDTAVYYCNARYRRFFSGYGYWGQGTQVTVSS”, the “polyreactivity (PSR sort gate)” value is “high polyreactivity”.

On to “QVQLVESGGGLVQAGGSLRLSCAASGRIFRINAMGWYRQAPGKERELVATITSGGGSTYADSVKGRFTISRDNAKNTVYLQMNSLKPEDTAVYYCAARSRIGRYTYDYWGQGTQVTVSS”, for which the “polyreactivity (PSR sort gate)” value is “high polyreactivity”. The entry for “QVQLVESGGGLVQAGGSLRLSCAASGRIFRIYAMGWYRQAPGKERELVASITWRGGRTYYADSVKGRFTISRDNAKNTVYLQMNSLKPEDTAVYYCAATSSTSYYWGQGTQVTVSS” is “high polyreactivity”. The entry for “QVQLVESGGGLVQAGGSLRLSCAASGRIFRKYTMGWYRQAPGKERELVAAISRNGGDTYYADSVKGRFTISRDNAKNTVYLQMNSLKPEDTAVYYCNARTPTDSTHFDYWGQGTQVTVSS” is “low polyreactivity”; for “QVQLVESGGGLVQAGGSLRLSCAASGRIFRLYAMGWYRQAPGKERELVAAIRVSGNTYYADSVKGRFTISRDNAKNTVYLQMNSLKPEDTAVYYCAAKPYYFYGMDYWGQGTQVTVSS” it is “high polyreactivity”. Next, “QVQLVESGGGLVQAGGSLRLSCAASGRIFRLYAMGWYRQAPGKERELVAAITSSGSSTYYADSVKGRFTISRDNAKNTVSLQMNSLKPEDTAVYYCNARYTYPYHFGYWGQGTQVTVSS”: “high polyreactivity”.

As to “QVQLVESGGGLVQAGGSLRLSCAASGRIFRNTMGWYIQAPGKERELVAAITDTTDSTYYADSVKGRFTISRDNAKNTVYLQMYSLKPEDTAVYYCAARYGGYVNRPYYYWGQGTQVTVSS”, the “polyreactivity (PSR sort gate)” value was “low polyreactivity”. The entry for “QVQLVESGGGLVQAGGSLRLSCAASGRIFRPNAMGWYRQAPGKERELVAAMTSGGSTNYADSVKGRFTISRDNAKNTVYLQMNSLKPEDTAVYYCAKGYKYGKNIYYYWGQGTQVTVSS” is “high polyreactivity”; for “QVQLVESGGGLVQAGGSLRLSCAASGRIFRPYAMGWYRQAPGKERELVAAITQSGGITSYADSVKGRFTISRDNAKYTVYLQMNSLKPEDTAVYYCAADDFTTAGFGMDYWGEGTQVTVSS” it is “low polyreactivity”. As to “QVQLVESGGGLVQAGGSLRLSCAASGRIFRPYTMGWYRQAPGKEWELVAAISIGGRTYYADSVKGRFTISRDNAKNTVYLKMNSLKPEDTAVYYCAAVGGSDRRARPGRAVDYWGQGTQVTVSS”, the “polyreactivity (PSR sort gate)” value is “high polyreactivity”. “QVQLVESGGGLVQAGGSLRLSCAASGRIFRRKTMGWYRQAPGKERELVAAITSRGGSTYYADSVKGRFTISRDNAKNTFYLKMNSLIPEDTGFYYCNTRVVPEIYDYWGQGSQVTVSS”: the “polyreactivity (PSR sort gate)” value is given as “high polyreactivity”. Regarding “QVQLVESGGGLVQAGGSLRLSCAASGRIFRRNTMGWYRQAPGIERELVAAITSSGGSTYADSVKGRFTISRDNAKNTVYLQMNSLKPEDTAVYYCATYVAYHRGYRTYDHWGQGTQVTVSS”, the “polyreactivity (PSR sort gate)” value was “low polyreactivity”.

As for “QVQLVESGGGLVQAGGSLRLSCAASGRIFRRYAMGWYRQAPGKERELVAAISSGGGSTYYADSVKGRFTISRDNAKNTVYLQMNSLKPEDTAVYYCNTDFYYDDVSQAHDYWGQGTQVTVSS”, the “polyreactivity (PSR sort gate)” value is reported as “high polyreactivity”.

(Values after the nanobody polyreactivity screen of Harvey et al. (2022).)
